Data as given in patent publication EP2261242A1, “Aspartate-N-acetyltransferase enzyme, diagnostic method and therapeutic method” (UNIVERSITE CATHOLIQUE DE LOUVAIN, priority 2009, dated 2010).
Where two headings read alike, the source gives them in different places. Blank lines part the entries; values can stand above or below the molecule they belong to.

How the values were obtained:
mouse NAT8L = target: T1, mouse NAT8L (Mus musculus, UniProt Q3UGX3); experiment: Radiochemical Asp-NAT activity assay on washed membrane pellets of HEK cells transfected with untagged mouse NAT8L; type: biochemical
T1 construct: expressed in transfected cells; host or cells: HEK 293T cells (pCMV5 vector); washed 16 000 x g membrane pellets of frozen-thawed extracts
T1 sequence (Q3UGX3 1-299): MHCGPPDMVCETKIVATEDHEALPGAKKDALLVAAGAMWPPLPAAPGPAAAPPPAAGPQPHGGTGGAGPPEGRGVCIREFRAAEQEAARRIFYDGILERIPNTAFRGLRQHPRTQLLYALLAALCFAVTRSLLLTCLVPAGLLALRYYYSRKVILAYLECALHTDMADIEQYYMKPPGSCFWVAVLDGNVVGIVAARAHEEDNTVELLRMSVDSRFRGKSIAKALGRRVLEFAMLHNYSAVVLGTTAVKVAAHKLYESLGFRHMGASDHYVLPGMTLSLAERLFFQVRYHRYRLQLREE
Experimental: After 20-40 min at 30°C, the reaction was arrested by a 5-min incubation at 80°C and 1 ml of 5 mM Hepes, pH 7.1 was added. The sample was centrifuged and the supernatant was applied on a 1-ml Dowex AG1X8 column (Cl^- form, 100-200 mesh, from Acros Organics) prepared in a Pasteur capillary pipette. […] Radioactivity was counted in the presence of Ultima Gold™ (Perkin Elmer) in a liquid scintillation counter. The kinetic studies shown in Figure 3 were performed using washed pellets, obtained by centrifuging extracts for 20 min at 16 000 x g, resuspending them in the initial volume of extraction buffer, recentrifugation and resuspension in the original volume of extraction buffer.
The Asp-NAT activity was further characterized in extracts of cells expressing wild-type mouse NAT8L. […] The kinetic studies were therefore performed on washed pellets, to eliminate soluble, potentially interfering enzymes. […] The KM values amounted to ≈ 9 and 13 µM in the presence of 0.5 and 1 mM CHAPS, respectively.

[1] = substrate: NC(CCC(=O)O)C(=O)O; experiment: purified protein, by the assay type; conditions: other: glutamate as substrate (not shown); pH 7.1
[2] = substrate: CC(=O)SCCNC(=O)CCNC(=O)[C@H](O)C(C)(C)COP(=O)(O)OP(=O)(O)OC[C@H]1O[C@@H](n2cnc3c(N)ncnc32)[C@H](O)[C@@H]1OP(=O)(O)O; experiment: purified protein, by the assay type; conditions: other: 20 µM aspartate, pH 7.1
[3] = substrate: N[C@@H](CC(=O)O)C(=O)O; experiment: purified protein, by the assay type; conditions: other: substrate saturation curve; same in absence and presence of 0.5 mM CHAPS; pH 7.1

Ki (mouse NAT8L; inhibition of incorporation of [^14C]-aspartate into NAA, competitive with respect to aspartate, 200 µM acetyl-CoA, 0.5 mM CHAPS, variable aspartate): 0.56 mM
Molecule: CC(=O)N[C@@H](CC(=O)O)C(=O)O [NAA, N-acetylaspartate]

Molecule: C[C@H](CCC(=O)NCCC[N+](C)(C)CCCS(=O)(=O)[O-])[C@H]1CC[C@H]2[C@@H]3[C@H](O)C[C@@H]4C[C@H](O)CC[C@]4(C)[C@H]3C[C@H](O)[C@]12C [CHAPS]
increase of Vmax (mouse NAT8L; 0.5 mM CHAPS, saturation curve for aspartate): ≈ 30%

Molecule: N[C@@H](CCC(=O)O)C(=O)O [glutamate]
Ki (mouse NAT8L): ~6 mM

B1: mouse NAT8L (Mus musculus) (protein)
chain: T1 sequence (Q3UGX3 1-299)
Km [1]: 5000 µM
Km ([2]; in the presence of 0.5 mM CHAPS): 9 µM
Km ([2]; in the presence of 1 mM CHAPS): 13 µM
Km [3]: 90 µM
